Results from the DeepSol protein solubility set.

assay: soluble on expression in E. coli; label from the status in PepcDB or PDB records

Sequence	soluble on expression in E. coli
MSLDWHTLLTRERLGKALYSADELGRSPFHKDHDRIIFSGAFRRLGRKTQVHPVSSNDHIHTRLTHSLEVSCVGRSLGMRVGETLRDNLPDWCAPSDLGMIVQSACLAHDIGNPPFGHSGEDAIRHWFQQAAGRGWLDDMSDDERADFLNFEGNAQGFRVLTQLEYHQFDGGTRLTYATLGTYLKYPWSARHADALGYKKHKFGSYQSELPLLEQIARKLGLPQLEHQRWARHPLVYLMEAADDICYALIDLEDGLEMELLQYAEVEALLLDLVGEDLPETYRQLGPRDSRRRKLAILRGKAIEHLTNAAAHAFVEQQQALLAGQLPGDLVEHMHGPAKRCVLQAKDMARNKIFQDKRKTLHEIGAYTTLEILLNTFCGAALEQHGGRTPSFKSRRVLDLIGNNAPDPHASLHSAFLRMIDFIAGMTDSYASEMAREMTGRSSPTEGHHHHHH	soluble
MGSDKIHHHHHHMARKKRNPDAEKLAESILNAYQPESVDDMQDALKDVFGPLFEKMLQGELNNHLGYDAHSKEPKEHDNRRNGYGTKTLKTSFGEVAIDVPRDREASFEPELIPKRKRDVSDIEGKVLSMYARGMSQRDIAATVEAIYGFDISHEMISDITDAVLPELEEWQARPLAKCYAFLFVDCMYVTLRENYEAKEYAVYTILGYDLKGNKEILGLWLNQTESKNRWMQVFDELKARGVEDVFFISMDGVSGLEEGAKAIFPSVIVQRCIVHLVRNALRYIPSKDYKEVCRDMKKFYGASSLNAAHAAFGSFQNRWSHYSGAVDVWKRNFAHVEQLFDYGSAIRKIMYTTNAVESVHSSFRKVTKKGAFSNENALLKLLYLRTKELHAKWSGGRIQNWAMVLKQLMINETFSSRMKSMRFTFRNNGRFIQLCVRSKFI	not soluble
MNRRQFLGSAAAVSLASAASFARAHGHADYHHHHDMQPAAASAYTAVRQTAAHCLDAGQVCLTHCLSLLTQGDTSMSDCAVAVRQMLALCGAVHDLAAQNSPLTRDAAKVCLEACKQCAKACKEHSAHHAECKACYESCLDCIKECEKLAALEHHHHHH	soluble
MSLTVWKTLEKTNHSQSEILSQLIEESDAIVVGIGAGMSAADGFTYIGPRFEEAFPDFIAKYQLLDMLQASLYDFEDWEEYWAFQSRFVALNYLDQPVGQAYLDLKDILAKKEYHIITTNADNAFAVADYNLEKVFHIQGEYGLWQCSQHCHQQTYRNDQAIRQMIAQQKDMKIPSNLIPKCPKCDQPFEINKRNEEKGMVEDADFHAQRQRYENFLSQHQNDKVLYLEIGVGHTTPQFIKHPFWRFVSLNENSLFVTLNHKHYRIPQKIRSRSVQLTQHIAELIAEAKKEIIGEGHHHHHH	soluble
MAHHHHHHMFSFYIYRKKTISWDEVTINEQDKERGSRMKILEPNTPFNFILMDSASEDEASKYGDVKGSDEGQNNIADDLINKLNQLVEKQENKGVSNIDFKEKRKKHYNEYKMLQKLRKSGTLDDIDEEYKPDNKDSNCDNSVSQEFPCYIARNFVVISL	not soluble
MGSDKIHHHHHHMNQFKMSLFLPPISPVKDSATGRTVQPPTLTPYKEITLQEVYKLITSSERLKTLTETVRRAAENGDEKAYRMLKQQTLPYVTPCGVFSYRKSDSLTGPSGLIVVDIDHLDSRGEAEKLKRQLFDDRLLRPVLAFTSPGGRGVKAFIPYDLARIPDTRQNTSENIHWAMNYVQAIYDSHPDGEDKKTSRSGKGVDRSGKDLVRACFLSYDEEALIRREI	not soluble
MKYCDFNGCHNKISKGRYCEEHKRNKPRKKKDKKNIYHHENKPFYRTDAWKFVRSKVYERENGCCQRCGRFVFGRRAHVHHVIPIKEDPILKLEENNLRLLCPVCHTIEENEDKPKKVFPSYFGSPPIKNLEHHHHHH	soluble
MRLLPVTLLLGAVIFVSTKSTCRTRTKPPSTVPMNEVTEAVTTKKASNVTVKPTTCEASWTRVERSIGGWCLKVYNGFVHQDQASQACIRIGAELSGSESSAERAVIARLGKERMLAASDYKFGTIRVGIARPTTTRAWALTDGNNDGGQQGIQWSKGEPQLGPTSGYSHNCALMWIWASTGTSPYEHGKYFHKFVHLLGRTCTEDLFVESVLLDF	not soluble
MDIAEQLIQNAGKRSTPVRSAVLGVLLNAEDVLSHSEVLEHLQQLGAFDRVTVYRALDWLVTQGLVHKVAGAGRAWRFQVTRSESMHRHAHFQCHHCHKVFCLPEVQPVLPKELPSNFSIDSIELNIKGICADCGRAMMSQ	not soluble
GPVDPVKTFSEVLAAVEDRTISKELLDEKCRKILAFKYALIICKGISKELPAEEVVRQVNSREAERMSEDLWQASITILKNKKHFLPLSEGNRIACVNLDGAASNTFTQELGLTSKDCYSYAKGSNSTRTQELLSKLKGYDAVIVTVRHTQPDWAGTFLHRLTEQNHTAIVFFTSPYVADRIPAAMDKARAIVVAYENVKEAARMAAYKIRDRVVVSSGGGIPVVQEEEDTDPTANMMPPTELSSGLIPMPA	not soluble
MSSPARQYRGRSSEQRAAERRARLLEAGLQVFGTVGGEKATMTAICAEAKLTERYFYESFRDRDDLLVQVIEGIAAEIAEAARVTLQTVTGDPEVRARAAIATFVDILTADPRKGRVSIIESAAAEPLRTRRRELLRAFALLVAEESKELYGDRAWSSPQDEITALLFVGGLAELMTAWLNGEIEVSPEQIVDAATYQFTSTAHR	not soluble
MNLTNYHSHTLYCDGRAGMEDFIRFAISRGFTSYGISSHAPLPFPTHWTMEWDRMDDYLDEFTRMKEKYASEIELAVGLEIDYLNEDSNPSVRRFQELPLDYRIGSVHLLYNDRDEVVDIDVCAEVFRDIVDQHFGGDLDRVIHLYYDRLLRMVELGGFDILGHADKMHHNAACYRPGLLDESWYDALIHDYFSAVAAKGYIVEINTKALHHLNTFFPNERYFPLLKELGVRVQVNSDSHYPERINSGRPEALAALQKAGFETVTEWHGGKWIEMPL	not soluble
MFYYVEILGTLPEMGKAEVEALAELGVGNVEKVDYLLVSGSVKHIGVFERLGLAHEYGLLLYEGDDIKDILDFAKGLEWRNIINGTFAVRRERMRNCMHEVNDLDKKIGGIIHSQGLRVNLSRPDTVVRVYCGNKIWLGIRIREFKGKEFEDRKADRRPFSRPIALPPRIARAMVNLTKATREVLDPFMGTGGMLIEAGLIGLKVYGLDIREDMVEGAKINLEYYGIRDYVVKVGDATKIEEVFPGKTFEAVATDPPYGNSTTLPMDRNELYKRSLESIHSVLEGRLAIAFPADFDARDVAESIGFKVLGRFYQRVHSSLSRYFYVMEV	soluble
MAATARRGWGAAAVAAGLRRRFCHKLKNPYTIKKQPLHQFVQRPLFPLPAAFYHPVRYMFIQTQDTPNPNSLKFIPGKPVLETRTMDFPTPAAAFRSPLARQLFRIEGVKSVFFGPDFITVTKENEELDWNLLKPDIYATIMDFFASGLPLVTEETPSGEAGSEEDDEVVAMIKELLDTRIRPTVQEDGGDVIYKGFEDGIVQLKLQGSCTSCPSSIITLKNGIQNMLQFYIPEVEGVEQVMDDESDEKEANSP	soluble
MGSDKIHHHHHHMGEQQLDCALDLMRRLPPQHCDKNLTDLIDLCPHLVDDLLSTIDQPLKIAADRETGKQYLLCDYNRDGDSYRSPWSNTYDPPLEDGQLPSEKRRKMEIEANAAFESYRDLYFEGGVSSVYFWDLDNGGFAGIVLIKKEGDGAKNITGCWDSIHVIEITERARQAHYKLTSTIMLWLQTNKSSSGVMNLGGSLTRQHEMDAPINDQNTHLANMGRMIEDQESKMRLTINEIYFGKTKKVMSDLRSTEKQSELEKQDEIVRELNNAMANRGN	not soluble
MDVLVTAGGTSEPIDNVRSITNHSSGGLGKAIAESFLAAGHTVTYVTTKHALRPTQQLDLSIKEIETTVELATTLEQLFAEKQFDAIVHAMAVSDFTTETAQTEEQFIDSFAQQLSEQTLPKTKEALVTIVQNTLNQIADIPQTATKISSDTDRLLIFLKKNPKVIQMIRDKQPQTVLVGFKLLVNVSQEELVQVAQAALVKNRCDFVLANDLMNVHETEHKGLLINETGIVQEAYSKQGIGSMIVKNVEKKWREQQ	not soluble
MGSDKIHHHHHHMSEVSKWPAINPFHWGYNGTVSHIVGENGSIKLHLKDNKEQVDFDEFANKYVPTLKNGAQFKLSPYLFTGILQTLYLGAADFSKKFPVFYGREIVKFSDGGVCTADWLIDSWKKDYEFDQSTTSFDKKKFDKDEKATHPEGWPRLQPRTRYLKDNELEELREVDLPLVVILHGLAGGSHEPIIRSLAENLSRSGRFQVVVLNTRGCARSKITTRNLFTAYHTMDIREFLQREKQRHPDRKLYAVGCSFGATMLANYLGEEGDKSPLSAAATLCNPWDLLLSAIRMSQDWWSRTLFSKNIAQFLTRTVQVNMGELGVPNGSLPDHPPTVKNPSFYMFTPENLIKAKSFKSTREFDEVYTAPALGFPNAMEYYKAASSINRVDTIRVPTLVINSRDDPVVGPDQPYSIVEKNPRILYCRTDLGGHLAYLDKDNNSWATKAIAEFFTKFDELVV	not soluble
MAHHHHHHMLHPSNALLTALLFVTTRMTNVESVKKKPLPYVKNYNLCDRSVRGIPSRHTKGTIRASTNPITTAPNEDKSDVYTPPISSGN	soluble
MSLKRILLSSDRSGSGKTLITSAIMRALSKKYKVRGFKAGPDFIDPGYHKIATGFPSINLDLWMMGKNNVKRSLAKYGKEFDIGIIEGVMGLYDGVDTLYSTYELAKVTKTPIILIINCSNIGSTVGAIVKGLKYYRSDVSIRGVIFNKIASETHYNYCRNAVEDVEVLGYVPFDKNLEIKSRHLGLVTVEDNREVQNLIRYASELVEKYVDLDKIYEMASDEDLEIDLPEDNESNGVKRKMAIAYDPAFSFYYQENLDILKNKYELEFFSPLNNEYVEDAEAIYIGGGYPELHLNELEKSTRTKKWLKNMSYAGVKIYAECGGLMYLSKNLIDENNKNHSMTGIFDIDIKTKDKLTIGYTELEAVKENFIVNKNNVVRGHEFHVSKPISVNEKEFVFKVRIGKGIINKLDGVKSNNTVASYSHLHFSNFQLRIVFEGHHHHHH	not soluble
MDRLRFDHRVITENGNKQPLVMVINLSSISMAMMSYDFNSKPLLIFWETTKACGLKCEHCRASAILDALPGEMTFDQSINFLSHIKEFGKPYPIVILTGGDMLRKHRIWDIMDYLRSQEIPFSVSPAVTDLLTHEAILKFKEFGVSSVSISLDGMREVHEKVRGVAGVYDDTVKAIEDLISTGISMQINTVVMRSTVHDLPHVLKLIIDKGVKVWEVFFLIKTGRGIDREDLSPEEYENVNKFLLFATGYGIRIRTVESPIYRRITMQYGKNGLIKGGRLFDELREETVSLIGNPSKEYASSVIPTRDGFGIIFVGHDGEVYPSGFLPYSVGNVKDRSIVDIYRNSDLLNSIRNPDNLHGKCGLCEYRKVCGGSRARAFAYTGDPFGTDPSCIYEPSAVPE	not soluble
MTSWADIQKLASDLQRVQLSQSSKKLSEVNCIEVLQKLIASHRIDVVYTRDGHSYVTKNHLETEIKNECIAAGGRASLTDIAVALNIDFDHIEKTSRLIVSTDDEFTISNAEIFATEYVHRLRNELRTLLDEQGNQTTAALCKHWNLSSELLQSLLIEKLGSSDFQGVVDGDTIYTSSFLNARQLVLRAILIALTKITPISTIQKRVGLTPKRFWIAFENLQSLGEIPGTLIGSRTSPSCSYRPMMYDHLVKSCVLNQYRQNEFLEISTLKTLGVDAKPALEEVLGSSEFKKLVSMRSMFMTKELMDQCINAVQEDLQKSGISDVHLALQSLNLPLDTADEDEIGSKVANVEKDSHFAEGFVFKGAVLTEALRSIDKLLDVRAHEEVDRLEAEKKKQGGAKAAVKVQEETDDWGDGKKGGKGGKKNAKSVKGGSKSSAPSTSSNLSANISINSEELEIWLRESQSVPEEILSVIVEKLNQETTTLLRKKVQDIQAHQLVASVANSKKSLSAIGDKCRQLYDSFNTFETATSTFADPLGSDLRQYLLKTVGNEIALALLSYVMGVDNAHQLKEKQREETIENLPEMLRDPIRSVFASLKSTDDDALDKFHDAVYNCSAPSATSLALKKVDKKGRAEVGAKITAELHEQLCSQTEPATTLLLSVLYILAKAGRPTTASGKFVSQLVAQIKDLCPENVFDLLQACQKGVVTCIKNKGDEVAKEMLVNDISSLKQSIMP	not soluble
